{"source": "patent US20220323445A1", "about": "“REDUCING IMMUNOGENICITY TO PEGLOTICASE” (Horizon Therapeutics Ireland DAC, priority 2020, published 2022)", "molecules": {"B1": {"name": "pegloticase (protein)", "chain": "TYKKNDEVEFVRTGYGKDMIKVLHIQRDGKYHSIKEVATTVQLTLSSKKDYLHGDNSDVIPTDTIKNTVNVLAKFKGIKSIETFAVTICEHFLSSFKHVIRAQVYVEEVPWKRFEKNGVKHVHAFIYTPTGTHFCEVEQIRNGPPVIHSGIKDLKVLKTTQSGFEGFIKDQFTTLPEVKDRCFATQVYCKWRYHQGRDVDFEATWDTVRSIVLQKFAGPYDKGEYSPSVQKTLYDIQVLTLGQVPEIEDMEISLPNIHYLNIDMSKMGLINKEEVLLPLDNPYGKITGTVKRKLSSRL", "modifications": "monomethoxy PEG conjugated; Krystexxa Sequence", "notes": "covalent conjugate of uricase produced by a genetically modified strain of Escherichia coli and monomethoxypoly (ethylene glycol)"}}, "system": "serum uric acid (sUA)", "assay": "Serum uric acid (sUA) levels and sUA responders, open-label study of pegloticase with MTX (NCT03635957)", "assay_type": "in vivo, human", "experimental": "The primary objective is to estimate the response rate during Month 6 (Weeks 20, 22, and 24), as measured by the sustained normalization of serum uric acid (SUA) to <6 mg/dL for at least 80% of the time during Month 6 in subjects receiving KXX with MTX.\nThe primary efficacy outcome endpoint is the sustained normalization of SUA to <6 mg/dL for at least 80% of the time during month 6 (weeks 20, 22, and 24) in subjects receiving KXX with MTX. This is slightly below the urate solubility threshold and this threshold has been the accepted standard for nearly all modern gout trials. Participants who achieve this endpoint were classified as “responders.” Serum uric acid (SUA) responders may also be defined as participants achieving and maintaining SUA <6 mg/dL for at least 80% of the time during Month 6 (Weeks 20, 22, and 24).\nBlood samples may be collected prior to each pegloticase infusion for measurement of SUA levels using the Beckman Coulter AU System Uric Acid procedure. Participants were declared “non-responders” if there were SUA measures >6 mg/dL at 2 consecutive study visits beginning with the week 2 visit. […] If the SUA goal is not maintained before or at the 12-week mark, it was assumed that the participant had developed clinically relevant anti-pegloticase antibody and they received no further infusions. This assumption and subsequent discontinuation of pegloticase was consistent with the protocol of large phase III randomized controlled trials and the product label. A formal stopping rule was 2 occasions of SUA levels of greater than 6 mg/dL.\nClinical Chemistry—Blood samples were collected prior to each pegloticase infusion for measurement of SUA levels (primary efficacy parameter) using the Beckman Coulter AU System Uric Acid procedure. In this procedure uric acid is converted to hydrogen peroxide. Hydrogen peroxide reacts with reagent to produce a chromophore which is read bichromatically at 660/800 nm. The amount of dye formed is proportional to the uric acid concentration in the sample.\nSerum samples for measurement of SUA levels were collected at the Screening Visit, the Week −4 Visit (prior to the first dose of MTX), and the Week −2 Visit during the MTX Run-in Period; within 48 hours prior to each pegloticase infusion and after the end of each pegloticase infusion prior to discharge from the site during the Pegloticase+IMM Period; at the non-infusion Week 52/End of Study/Early Termination Visits and at the Post Treatment 3 and 6 Month Follow-up Visits. Additional serum samples for SUA levels were collected at optional non-infusion (Frequent Sampling) Visits at Weeks 1 and 7. […] Subjects with SUA level >6 mg/dL at 2 consecutive visits beginning at Week 2 visit discontinued treatment, completed the End of Pegloticase Infusion Visit procedures within 2 weeks and continued the subject visits according to the protocol (without treatment).\nEfficacy analyses were performed using the modified intention-to-treat (mITT) population, defined as all enrolled subjects who received ≥1 dose of pegloticase. The proportion of Month 6 responders was summarized, along with a 95% confidence interval for the proportion. The proportion of Month 3 and overall (Months 3 and 6 combined) responders was analyzed similarly.\nA subject was declared a non-responder if the subject had SUA level >6 mg/dL at 2 consecutive study visits beginning with the Week 2 Visit. In addition, a subject who withdraws from study treatment for any reason after the first dose of pegloticase in the KXX+MTX Period and prior to Month 6 (for the primary endpoint) or Month 3 (for the secondary endpoint) was considered a non-responder if SUA values were not collected at the planned time points.\nPatients were administered oral MTX (15 mg/week) and folate (1 mg/day) 4 weeks prior to the first pegloticase infusion (Day 1) and throughout the pegloticase treatment period. […]", "key": {"[1]": {"details": "Week 44 - Pre-Infusion, mITT, n=3"}, "[2]": {"details": "Week 46 - Pre-Infusion, Month 6 sUA Responders"}, "[3]": {"details": "Week 46 - Pre-Infusion, mITT, n=2"}, "[4]": {"details": "Week 48 - Post-Infusion, Month 6 sUA Responders"}, "[5]": {"details": "Week 48 - Post-Infusion, mITT, n=3"}, "[6]": {"details": "Week 48 - Pre-Infusion, Month 6 sUA Responders"}, "[7]": {"details": "Week 48 - Pre-Infusion, mITT, n=2"}, "[8]": {"details": "Week 50 - Post-Infusion, Month 6 sUA Responders"}, "[9]": {"details": "Week 50 - Post-Infusion, mITT, n=3"}, "[10]": {"details": "Week 50 - Pre-Infusion, Month 6 sUA Responders"}, "[11]": {"details": "Week 50 - Pre-Infusion, mITT, n=2"}, "[12]": {"details": "Week 52/ET, Month 6 sUA Responders"}}, "data": [{"molecule": "B1", "values": [{"measurement": "sUA < 6 mg/dL, n (%)", "setting": "[1]", "result": "3 (100%)"}, {"measurement": "sUA Change from Baseline, Mean (SD)", "setting": "[1]", "result": "−10.55 (4.625) mg/dL"}, {"measurement": "sUA Change from Baseline, Median", "setting": "[1]", "result": -9.80, "unit": "mg/dL"}, {"measurement": "sUA Observed, Mean (SD)", "setting": "[1]", "result": "1.05 (1.305) mg/dL"}, {"measurement": "sUA Observed, Median", "setting": "[1]", "result": 0.30, "unit": "mg/dL"}, {"measurement": "sUA < 6 mg/dL, %", "setting": "[2]", "result": "(100%)"}, {"measurement": "sUA Change from Baseline, Mean", "setting": "[2]", "result": -12.65, "unit": "mg/dL"}, {"measurement": "sUA Change from Baseline, Median", "setting": "[2]", "result": -12.65, "unit": "mg/dL"}, {"measurement": "sUA Observed, Mean", "setting": "[2]", "result": 0.30, "unit": "mg/dL"}, {"measurement": "sUA Observed, Median", "setting": "[2]", "result": 0.30, "unit": "mg/dL"}, {"measurement": "sUA < 6 mg/dL, n (%)", "setting": "[3]", "result": "2 (100%)"}, {"measurement": "sUA Change from Baseline, Mean (SD)", "setting": "[3]", "result": "−12.65 (4.031) mg/dL"}, {"measurement": "sUA Change from Baseline, Median", "setting": "[3]", "result": -12.65, "unit": "mg/dL"}, {"measurement": "sUA Observed, Mean (SD)", "setting": "[3]", "result": "0.30 (0.000) mg/dL"}, {"measurement": "sUA Observed, Median", "setting": "[3]", "result": 0.30, "unit": "mg/dL"}, {"measurement": "sUA < 6 mg/dL, %", "setting": "[4]", "result": "(100%)"}, {"measurement": "sUA Change from Baseline, Mean", "setting": "[4]", "result": -10.33, "unit": "mg/dL"}, {"measurement": "sUA Change from Baseline, Median", "setting": "[4]", "result": -9.80, "unit": "mg/dL"}, {"measurement": "sUA Observed, Mean", "setting": "[4]", "result": 1.60, "unit": "mg/dL"}, {"measurement": "sUA Observed, Median", "setting": "[4]", "result": 0.30, "unit": "mg/dL"}, {"measurement": "sUA < 6 mg/dL, n (%)", "setting": "[5]", "result": "3 (100%)"}, {"measurement": "sUA Change from Baseline, Mean (SD)", "setting": "[5]", "result": "−10.33 (4.922) mg/dL"}, {"measurement": "sUA Change from Baseline, Median", "setting": "[5]", "result": -9.80, "unit": "mg/dL"}, {"measurement": "sUA Observed, Mean (SD)", "setting": "[5]", "result": "1.60 (2.252) mg/dL"}, {"measurement": "sUA Observed, Median", "setting": "[5]", "result": 0.30, "unit": "mg/dL"}, {"measurement": "sUA < 6 mg/dL, %", "setting": "[6]", "result": "(100%)"}, {"measurement": "sUA Change from Baseline, Mean", "setting": "[6]", "result": -12.65, "unit": "mg/dL"}, {"measurement": "sUA Change from Baseline, Median", "setting": "[6]", "result": -12.65, "unit": "mg/dL"}, {"measurement": "sUA Observed, Mean", "setting": "[6]", "result": 0.30, "unit": "mg/dL"}, {"measurement": "sUA Observed, Median", "setting": "[6]", "result": 0.30, "unit": "mg/dL"}, {"measurement": "sUA < 6 mg/dL, n (%)", "setting": "[7]", "result": "2 (100%)"}, {"measurement": "sUA Change from Baseline, Mean (SD)", "setting": "[7]", "result": "−12.65 (4.031) mg/dL"}, {"measurement": "sUA Change from Baseline, Median", "setting": "[7]", "result": -12.65, "unit": "mg/dL"}, {"measurement": "sUA Observed, Mean (SD)", "setting": "[7]", "result": "0.30 (0.000) mg/dL"}, {"measurement": "sUA Observed, Median", "setting": "[7]", "result": 0.30, "unit": "mg/dL"}, {"measurement": "sUA < 6 mg/dL, %", "setting": "[8]", "result": "(100%)"}, {"measurement": "sUA Change from Baseline, Mean", "setting": "[8]", "result": -10.57, "unit": "mg/dL"}, {"measurement": "sUA Change from Baseline, Median", "setting": "[8]", "result": -9.80, "unit": "mg/dL"}, {"measurement": "sUA Observed, Mean", "setting": "[8]", "result": 1.37, "unit": "mg/dL"}, {"measurement": "sUA Observed, Median", "setting": "[8]", "result": 0.30, "unit": "mg/dL"}, {"measurement": "sUA < 6 mg/dL, n (%)", "setting": "[9]", "result": "3 (100%)"}, {"measurement": "sUA Change from Baseline, Mean (SD)", "setting": "[9]", "result": "−10.57 (4.598) mg/dL"}, {"measurement": "sUA Change from Baseline, Median", "setting": "[9]", "result": -9.80, "unit": "mg/dL"}, {"measurement": "sUA Observed, Mean (SD)", "setting": "[9]", "result": "1.37 (1.848) mg/dL"}, {"measurement": "sUA Observed, Median", "setting": "[9]", "result": 0.30, "unit": "mg/dL"}, {"measurement": "sUA < 6 mg/dL, %", "setting": "[10]", "result": "(100%)"}, {"measurement": "sUA Change from Baseline, Mean", "setting": "[10]", "result": -12.65, "unit": "mg/dL"}, {"measurement": "sUA Change from Baseline, Median", "setting": "[10]", "result": -12.65, "unit": "mg/dL"}, {"measurement": "sUA Observed, Mean", "setting": "[10]", "result": 0.30, "unit": "mg/dL"}, {"measurement": "sUA Observed, Median", "setting": "[10]", "result": 0.30, "unit": "mg/dL"}, {"measurement": "sUA < 6 mg/dL, n (%)", "setting": "[11]", "result": "2 (100%)"}, {"measurement": "sUA Change from Baseline, Mean (SD)", "setting": "[11]", "result": "−12.65 (4.031) mg/dL"}, {"measurement": "sUA Change from Baseline, Median", "setting": "[11]", "result": -12.65, "unit": "mg/dL"}, {"measurement": "sUA Observed, Mean (SD)", "setting": "[11]", "result": "0.30 (0.000) mg/dL"}, {"measurement": "sUA Observed, Median", "setting": "[11]", "result": 0.30, "unit": "mg/dL"}, {"measurement": "sUA < 6 mg/dL, %", "setting": "[12]", "result": "(100%)"}, {"measurement": "sUA Change from Baseline, Mean", "setting": "[12]", "result": -12.65, "unit": "mg/dL"}, {"measurement": "sUA Change from Baseline, Median", "setting": "[12]", "result": -12.65, "unit": "mg/dL"}, {"measurement": "sUA Observed, Mean", "setting": "[12]", "result": 0.30, "unit": "mg/dL"}, {"measurement": "sUA Observed, Median", "setting": "[12]", "result": 0.30, "unit": "mg/dL"}, {"measurement": "sUA < 6 mg/dL, n (%)", "setting": "Week 52/ET, mITT, n=2", "result": "2 (100%)"}, {"measurement": "sUA Change from Baseline, Mean (SD)", "setting": "Week 52/ET, mITT, n=2", "result": "−12.65 (4.031) mg/dL"}, {"measurement": "sUA Change from Baseline, Median", "setting": "Week 52/ET, mITT, n=2", "result": -12.65, "unit": "mg/dL"}, {"measurement": "sUA Observed, Mean (SD)", "setting": "Week 52/ET, mITT, n=2", "result": "0.30 (0.000) mg/dL"}, {"measurement": "sUA Observed, Median", "setting": "Week 52/ET, mITT, n=2", "result": 0.30, "unit": "mg/dL"}]}]}
